Conditions in all cases: both partners purified
Test [1] has as its target T1, Rhesus HER3/HER3 (HisTag) (Macaca mulatta, UniProt H9ERZ8).
T1 construct: rhesus HER3 (ErbB3), bought recombinant protein; probably the extracellular domain (surmise); also called recombinant rhesus HER3; source: bought: Sinobiological
Kind of test: ELISA; plates coated with 1 µg/mL recombinant human, mouse, rat or rhesus HER3 (His tag); purified antibodies, dose-response.

A further test has as its target T2, Rat HER3/HER3 (HisTag) (rat, UniProt Q62799).
T2 construct: rat HER3 (ErbB3), bought recombinant protein; probably the extracellular domain (surmise); also called recombinant rat HER3; source: bought: Sinobiological
The description is as above.

The next test concerns the target T3, Mouse HER3/HER3 (HisTag) (mouse, UniProt Q61526).
T3 construct: mouse HER3 (ErbB3), bought recombinant protein; probably the extracellular domain (surmise); also called recombinant mouse HER3; source: bought: Sinobiological
The description is as above.

Test [2] deals with T4, human HER3-Fc chimeric protein (Homo sapiens, UniProt P21860).
T4 construct: human HER3 (ErbB3) part of the bought Fc chimera; also called HER3 Fc chimera protein; Recombinant human HER3/HER3-Fc chimeric protein; source: bought: R&D Systems
T4 sequence (P21860 20-643, change not shown): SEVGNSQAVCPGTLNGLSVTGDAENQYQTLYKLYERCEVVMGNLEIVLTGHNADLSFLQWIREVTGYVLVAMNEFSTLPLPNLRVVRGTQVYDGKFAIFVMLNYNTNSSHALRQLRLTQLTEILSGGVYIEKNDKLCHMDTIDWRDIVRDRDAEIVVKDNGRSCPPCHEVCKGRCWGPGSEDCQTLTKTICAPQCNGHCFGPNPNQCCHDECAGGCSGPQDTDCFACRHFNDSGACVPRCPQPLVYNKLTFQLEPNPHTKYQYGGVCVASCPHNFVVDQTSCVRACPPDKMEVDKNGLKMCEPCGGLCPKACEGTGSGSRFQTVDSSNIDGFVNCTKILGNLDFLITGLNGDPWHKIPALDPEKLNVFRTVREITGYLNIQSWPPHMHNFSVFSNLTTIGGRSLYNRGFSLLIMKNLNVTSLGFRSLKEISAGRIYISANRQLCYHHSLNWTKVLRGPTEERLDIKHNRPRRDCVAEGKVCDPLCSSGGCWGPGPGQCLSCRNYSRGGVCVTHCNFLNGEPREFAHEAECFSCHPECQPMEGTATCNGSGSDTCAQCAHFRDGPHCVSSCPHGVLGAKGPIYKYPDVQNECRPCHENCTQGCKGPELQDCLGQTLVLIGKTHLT
Briefly: SPR; Biacore X100; HER3 Fc chimera coupled to a CM5 chip; antibodies as analytes, single-cycle kinetics, 25 °C; duplicate; KD = koff/kon. On the technique in general: In SPR one partner is held on a chip, and binding of the other changes the refractive index at the surface.

The target in test [3] is T5, HER3 peptide #54 (15-mer of the overlapping peptide library) (Homo sapiens, UniProt P21860).
T5 construct: 15-mer of human HER3 from a library of 15-mers with 11 residues overlap; Limits worked out from the printed core and the 11-residue overlap; source: synthetic peptide (JPT Peptide Technologies)
T5 chain: QCNGHCFGPNPNQCC
Briefly: peptide or protein array; ELISA on plates coated with 1 µg/mL of 15-mer HER3 peptides with 11 residues overlap; antibody at 1 µg/mL overnight at 4 °C. For orientation: An ELISA detects its analyte on a solid surface through an enzyme-linked reagent.

The target of test [4] is T6, HER3 peptide #55 (15-mer of the overlapping peptide library) (Homo sapiens, UniProt P21860).
T6 construct: 15-mer of human HER3 from a library of 15-mers with 11 residues overlap; Limits worked out from the printed core and the 11-residue overlap; source: synthetic peptide (JPT Peptide Technologies)
T6 chain: HCFGPNPNQCCHDEC
Described as above.

Test [5] deals with T7, Recombinant human ErbB4 chimeric protein (Homo sapiens (Human)., UniProt Q15303).
T7 construct: human ErbB4 part of the bought chimeric protein; also called HER4; source: bought: R&D Systems
T7 sequence (Q15303 26-651, change not shown): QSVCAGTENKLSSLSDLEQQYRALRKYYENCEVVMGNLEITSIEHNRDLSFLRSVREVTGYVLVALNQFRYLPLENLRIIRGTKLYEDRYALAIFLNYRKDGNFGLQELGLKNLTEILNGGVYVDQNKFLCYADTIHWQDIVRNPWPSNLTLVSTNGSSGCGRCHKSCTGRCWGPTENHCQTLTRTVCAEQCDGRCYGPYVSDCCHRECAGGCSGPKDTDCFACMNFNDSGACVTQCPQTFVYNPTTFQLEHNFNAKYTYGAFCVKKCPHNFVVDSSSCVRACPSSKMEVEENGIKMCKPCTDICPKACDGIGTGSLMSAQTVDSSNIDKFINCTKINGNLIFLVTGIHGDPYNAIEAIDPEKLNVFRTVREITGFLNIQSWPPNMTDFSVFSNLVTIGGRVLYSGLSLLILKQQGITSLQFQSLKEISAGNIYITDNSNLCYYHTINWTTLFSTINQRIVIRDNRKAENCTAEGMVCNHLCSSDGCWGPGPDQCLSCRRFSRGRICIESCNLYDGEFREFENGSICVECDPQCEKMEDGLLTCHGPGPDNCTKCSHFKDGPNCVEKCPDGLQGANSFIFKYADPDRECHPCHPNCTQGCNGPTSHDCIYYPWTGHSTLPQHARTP
Kind of test: ELISA; plates coated with 1 µg/mL recombinant EGFR, ErbB2, HER3 or ErbB4 chimeric protein; purified antibodies at 10 µg/mL (Figure 3A) or in serial dilutions on human HER3 (Figure 3B).

Test [6] deals with T8, Recombinant human EGFR-Fc chimeric protein (Homo sapiens (Human)., UniProt P00533).
T8 construct: human EGFR part of the bought Fc chimera; also called ErbB1; HER1; source: bought: R&D Systems
Described as above.

Test [7] deals with T9, Recombinant human ErbB2 chimeric protein (Homo sapiens (Human)., UniProt P04626).
T9 construct: human ErbB2 part of the bought chimeric protein; also called HER2; source: bought: R&D Systems
The test is described as above.

T2 sequence (Q62799 20-643): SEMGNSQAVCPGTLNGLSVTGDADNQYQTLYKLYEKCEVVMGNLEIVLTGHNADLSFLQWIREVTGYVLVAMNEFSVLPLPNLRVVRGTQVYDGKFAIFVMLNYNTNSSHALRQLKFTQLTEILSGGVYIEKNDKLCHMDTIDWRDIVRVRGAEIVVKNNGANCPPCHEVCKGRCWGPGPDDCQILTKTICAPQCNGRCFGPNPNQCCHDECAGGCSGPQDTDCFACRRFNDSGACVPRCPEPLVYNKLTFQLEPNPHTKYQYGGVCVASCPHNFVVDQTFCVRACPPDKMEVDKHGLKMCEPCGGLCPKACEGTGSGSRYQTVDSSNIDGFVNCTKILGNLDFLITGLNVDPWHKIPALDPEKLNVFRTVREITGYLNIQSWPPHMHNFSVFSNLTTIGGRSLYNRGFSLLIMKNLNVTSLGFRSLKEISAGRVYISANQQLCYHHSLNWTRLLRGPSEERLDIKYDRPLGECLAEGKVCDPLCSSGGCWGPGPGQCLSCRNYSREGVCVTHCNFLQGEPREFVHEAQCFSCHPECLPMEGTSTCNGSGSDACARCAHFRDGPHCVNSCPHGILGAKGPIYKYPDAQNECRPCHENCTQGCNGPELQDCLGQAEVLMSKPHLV
T3 sequence (Q61526 20-641): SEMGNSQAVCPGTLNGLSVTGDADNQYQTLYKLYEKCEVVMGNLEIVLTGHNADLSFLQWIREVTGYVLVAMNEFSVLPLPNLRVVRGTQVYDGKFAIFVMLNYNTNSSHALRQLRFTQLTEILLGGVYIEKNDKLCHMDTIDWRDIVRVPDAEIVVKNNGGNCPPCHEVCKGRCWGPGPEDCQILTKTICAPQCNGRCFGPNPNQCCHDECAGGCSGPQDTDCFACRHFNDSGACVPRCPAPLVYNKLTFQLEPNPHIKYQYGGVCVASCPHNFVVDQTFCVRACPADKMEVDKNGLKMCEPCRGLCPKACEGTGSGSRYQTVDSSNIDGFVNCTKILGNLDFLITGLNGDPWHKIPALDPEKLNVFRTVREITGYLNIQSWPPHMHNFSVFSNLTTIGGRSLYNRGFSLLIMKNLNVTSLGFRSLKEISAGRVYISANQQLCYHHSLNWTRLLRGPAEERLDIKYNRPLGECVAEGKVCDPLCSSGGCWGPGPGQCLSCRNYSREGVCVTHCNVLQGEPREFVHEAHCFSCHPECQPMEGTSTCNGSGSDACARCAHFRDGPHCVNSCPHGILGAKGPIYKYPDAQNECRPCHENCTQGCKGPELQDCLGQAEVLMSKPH

B1: TK-hu A3-H1L1 humanized anti-HER3 monoclonal antibody (human IgG1, kappa) (antibody, V domains shown)
VH: QVTLRESGPALVKPTQTLTLTCTFSGFSLSTYGMGVGWIRQPPGKALEWLANIWWNDDKYYSSSLKTRLTISKDTSKNQVVLTMTNMDPVDTATYYCVQIANPYWYFDVWGQGTTVTVSS
VL: DIVMTQTPLSLSVTPGQPASISCKSSQSLLHSYGNTYLEWYLQKPGQSPQLLIYRVSNRFSGVPDRFSGSGSGTDFTLKISRVEAEDVGVYYCFQGSHVPFTFGQGTKLEIK
notes: humanized heavy chain variable region, variant H1 (germline CDR grafting of murine TK-A3); they are in PDB 9I1Q chain I (also J, K, L), which also holds CH1 of the Fab; human IgG1 constant region present in the expression vector; humanized light chain variant L1 in frame with the human kappa constant region; the whole light chain is in PDB 9I1Q chain F (also E, G, H); IgG1 kappa; also called …
One may read the Kd as a measure of binding affinity in units of concentration. Low readings indicate tighter binding, high ones weaker binding. One may read the koff as the first-order rate constant of dissociation. A high value points to fast dissociation. As a reminder, the kon is the rate constant with which the complex forms. Read a low kon as slower complex formation. On to B1, for which the binding result in test [1] is “binds”; with Rat HER3/HER3 (HisTag), “binds”; with Mouse HER3/HER3 (HisTag), “binds”; in [3] it was “binds”; in [4], “binds”; in [5] it was “no binding (tested: 10 µg/mL)”. Further, the binding result in [6] and in test [7] was “no binding (tested: 10 µg/mL)” throughout. Also, the Kd in test [2] was found to be 1.81 nM. In test [2], this molecule registered a koff of 0.000113 s⁻¹. In test [2], this molecule displayed a kon of 62400 M⁻¹ s⁻¹.

These data come from publication PMC12550933, “Novel Humanized Anti-HER3 Antibodies: Structural Characterization and Therapeutic Activity” (Antibodies, 2025).
